Data published in patent publication US20060068468A1 (ACCELERON PHARMA, published 2006).
Where a chain is given by its changes, count along the chain named. Names and notes keep the numbering of the source.

B1: background ActRIIB-Fc fusion, WT (64A) (Fc fusion)
chain: SGRGEAETRECIYYNANWELERTNQSGLERCEGEQDKRLHCYASWANSSGTIELVKKGCWLDDFNCYDRQECVATEENPQVYFCCCEGNFCNERFTHLPEAGGGTHTCPPCPAPELLGGPSVFLFPPKPKDTLMISRTPEVTCVVVDVSHEDPEVKFNWYVDGVEVHNAKTKPREEQYNSTYRVVSVLTVLHQDWLNGKEYKCKVSNKALPVPIEKTISKAKGQPREPQVYTLPPSREEMTKNQVSLTCLVKGFYPSDIAVEWESNGQPENNYKTTPPVLDSDGSFFLYSKLTVDKSRWQQGNVFSCSVMHEALHNHYTQKSLSLSPGK
notes: Made in HEK293T or CHO cells and purified on protein A; also called wild-type (background A64) ActRIIB-Fc; background A64 construct
B2: ActRIIB-Fc D54A (Fc fusion)
chain: B1 chain with D36A
notes: Mutation in the background ActRIIB-Fc
B3: ActRIIB-Fc D80A (Fc fusion)
chain: B1 chain with D62A
notes: as for B2
B4: ActRIIB-Fc D80F (Fc fusion)
chain: B1 chain with D62F
notes: as for B2
B5: ActRIIB-Fc D80G (Fc fusion)
chain: B1 chain with D62G
notes: as for B2
B6: ActRIIB-Fc D80I (Fc fusion)
chain: B1 chain with D62I
notes: as for B2
B7: ActRIIB-Fc D80K (Fc fusion)
chain: B1 chain with D62K
notes: as for B2
B8: ActRIIB-Fc D80M (Fc fusion)
chain: B1 chain with D62M
notes: as for B2
B9: ActRIIB-Fc D80N (Fc fusion)
chain: B1 chain with D62N
notes: as for B2
B10: ActRIIB-Fc D80R (Fc fusion)
chain: B1 chain with D62R
notes: as for B2
B11: ActRIIB-Fc E37A (Fc fusion)
chain: B1 chain with E19A
notes: as for B2
B12: ActRIIB-Fc F82A (Fc fusion)
chain: B1 chain with F64A
notes: as for B2
B13: ActRIIB-Fc K55A (Fc fusion)
chain: B1 chain with K37A
notes: as for B2
B14: ActRIIB-Fc K74A (Fc fusion)
chain: B1 chain with K56A
notes: as for B2
B15: ActRIIB-Fc K74F (Fc fusion)
chain: B1 chain with K56F
notes: as for B2
B16: ActRIIB-Fc K74I (Fc fusion)
chain: B1 chain with K56I
notes: as for B2
B17: ActRIIB-Fc K74Y (Fc fusion)
chain: B1 chain with K56Y
notes: as for B2
B18: ActRIIB-Fc L79A (Fc fusion)
chain: B1 chain with L61A
notes: as for B2
B19: ActRIIB-Fc R40A (Fc fusion)
chain: B1 chain with R22A
notes: as for B2
B20: ActRIIB-Fc R56A (Fc fusion)
chain: B1 chain with R38A
notes: as for B2
B21: ActRIIB-Fc W78A (Fc fusion)
chain: B1 chain with W60A
notes: as for B2
B22: ActRIIB-Fc WT (64R) (Fc fusion)
chain: B1 chain with A46R
notes: also called A64R
B23: ActRIIB-Fc +15tail (Fc fusion)
chain: SGRGEAETRECIYYNANWELERTNQSGLERCEGEQDKRLHCYASWANSSGTIELVKKGCWLDDFNCYDRQECVATEENPQVYFCCCEGNFCNERFTHLPEAGGPEVTYEPPPTAPTGGGTHTCPPCPAPELLGGPSVFLFPPKPKDTLMISRTPEVTCVVVDVSHEDPEVKFNWYVDGVEVHNAKTKPREEQYNSTYRVVSVLTVLHQDWLNGKEYKCKVSNKALPVPIEKTISKAKGQPREPQVYTLPPSREEMTKNQVSLTCLVKGFYPSDIAVEWESNGQPENNYKTTPPVLDSDGSFFLYSKLTVDKSRWQQGNVFSCSVMHEALHNHYTQKSLSLSPGK
notes: also called ActRIIB-Fc with the C-terminal 15 amino acids of the extracellular domain

Legend:
GDF-11 [1] = biological target: T1, GDF-11 (UniProt O95390 299-407); test: BiaCore (SPR); ligand amine-coupled to CM5 chip, ActRIIB-Fc injected
T1 construct: also called Growth and Differentiation Factor-11; BMP11
T1 sequence (looked up): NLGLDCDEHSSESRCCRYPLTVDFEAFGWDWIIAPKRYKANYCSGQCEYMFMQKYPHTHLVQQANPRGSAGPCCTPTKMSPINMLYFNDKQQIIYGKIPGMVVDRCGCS
Procedure: (§1) GDF-11 or Activin A (“ActA”) were immobilized on a BiaCore CM5 chip using standard amine coupling procedure. The ActRIIB-Fc mutant or wild-type protein was loaded onto the system, and binding was measured.

Activin A [2] = biological target: T2, Activin A (UniProt P08476 311-426); test: as above
T2 construct: also called ActA
T2 sequence (looked up): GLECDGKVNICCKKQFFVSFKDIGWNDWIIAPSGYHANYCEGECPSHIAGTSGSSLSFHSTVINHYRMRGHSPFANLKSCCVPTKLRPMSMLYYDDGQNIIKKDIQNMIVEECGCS
Procedure: as §1

GDF-11 [3] = biological target: T1, GDF-11; test: BiaCore, ligand immobilized on CM5 chip
Procedure: as §1

Activin A [4] = biological target: T2, Activin A; test: BiaCore, ligand immobilized on CM5 chip
Procedure: as §1

Binder	binding result (GDF-11 [3])	binding result (Activin A [4])	other results
B1			Kd (GDF-11 [1]): 0.26 µM; Kd (Activin A [2]): 0.18 µM
B2	no binding		binding result (Activin A [2]): binds
B3	no binding	no binding	
B4	no binding	no binding	
B5	no binding	no binding	
B6		no binding	binding result (GDF-11 [1]): binds
B7	no binding	no binding	
B8	no binding	no binding	
B9	no binding	no binding	
B10	no binding	no binding	
B11	no binding	no binding	
B12			binding result (GDF-11 [1]): binds
B13	no binding		
B14			Kd (GDF-11 [1]): 0.0053 µM; Kd (Activin A [2]): 0.00435 µM
B15		no binding	binding result (GDF-11 [1]): binds
B16		no binding	binding result (GDF-11 [1]): binds
B17		no binding	binding result (GDF-11 [1]): binds
B18	no binding		binding result (Activin A [2]): binds
B19			binding result (GDF-11 [1]): binds; binding result (Activin A [2]): binds
B20	no binding	no binding	
B21	no binding	no binding	
B22			Kd (GDF-11 [1]): 0.086 µM
B23			Kd (GDF-11 [1]): 0.019 µM; Kd (Activin A [2]): ~0.026 µM
